The record followed here is paper PMC11236707, “dsRNA formation leads to preferential nuclear export and gene expression”.

For series [1], the target named is T1, Mex67 (in Mex67-Mtr2 heterodimer);Mtr2 (in Mex67-Mtr2 heterodimer) (Saccharomyces cerevisiae;Saccharomyces …, UniProt Q99257;P34232 1-599;1-184, |).
T1 sequence 1: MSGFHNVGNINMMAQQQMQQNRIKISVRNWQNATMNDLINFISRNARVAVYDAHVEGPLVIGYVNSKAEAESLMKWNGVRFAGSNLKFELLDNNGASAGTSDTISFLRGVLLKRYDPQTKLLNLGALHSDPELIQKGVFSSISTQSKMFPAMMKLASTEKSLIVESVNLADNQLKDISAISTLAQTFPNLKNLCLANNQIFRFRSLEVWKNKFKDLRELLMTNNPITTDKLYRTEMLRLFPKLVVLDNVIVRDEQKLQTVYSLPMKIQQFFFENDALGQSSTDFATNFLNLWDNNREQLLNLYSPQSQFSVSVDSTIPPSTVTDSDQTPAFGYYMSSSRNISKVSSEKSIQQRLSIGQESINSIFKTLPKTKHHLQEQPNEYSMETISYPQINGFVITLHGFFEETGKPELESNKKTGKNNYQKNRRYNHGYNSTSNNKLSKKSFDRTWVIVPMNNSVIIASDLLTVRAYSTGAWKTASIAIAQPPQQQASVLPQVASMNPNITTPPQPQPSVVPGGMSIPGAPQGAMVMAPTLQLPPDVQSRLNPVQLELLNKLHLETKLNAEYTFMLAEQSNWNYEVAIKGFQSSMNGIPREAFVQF
T1 sequence 2: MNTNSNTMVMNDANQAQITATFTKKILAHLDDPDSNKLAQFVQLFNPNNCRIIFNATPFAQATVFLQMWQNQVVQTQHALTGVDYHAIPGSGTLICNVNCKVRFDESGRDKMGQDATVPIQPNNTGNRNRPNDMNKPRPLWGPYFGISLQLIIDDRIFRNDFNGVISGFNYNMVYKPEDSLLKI
Put plainly: EMSA; 4 uM RNA; full upshift at 2-fold, saturated at 5-fold molar excess; 30 mM HEPES-KOH, 160 mM KCl, pH 7.6, Ribolock, 30 C 15 min; 4 uM RNA with 4-44 uM Mex67-Mtr2 (competition 3 uM RNA, 12 uM protein); 0.5% agarose, 1x TAE pH 9.5, 4 C. The conditions noted are these: protein: recombinant;recombinant; HisFF purification;; copies: 1;1; label: FAM; single strand. A general note: In EMSA bound probe runs differently from free probe, usually more slowly.

The target in series [2] is T1, Mex67 (in Mex67-Mtr2 heterodimer);Mtr2 …. The series is described as follows: EMSA; 4 uM RNA; full upshift at 3-fold, saturated at 10-fold molar excess; 30 mM HEPES-KOH, 160 mM KCl, pH 7.6, Ribolock, 30 C 15 min; 4 uM RNA with 4-44 uM Mex67-Mtr2 (competition 3 uM RNA, 12 uM protein); 0.5% agarose, 1x TAE pH 9.5, 4 C. As to conditions: protein: recombinant;recombinant; HisFF purification;; copies: 1;1; label: FAM on one strand; blunt.

The target is the same in series [3]. Put plainly: competition; N4 added to complex preformed on N1; labels switched, same effect; 30 mM HEPES-KOH, 160 mM KCl, pH 7.6, Ribolock, 30 C 15 min; 4 uM RNA with 4-44 uM Mex67-Mtr2 (competition 3 uM RNA, 12 uM protein); 0.5% agarose, 1x TAE pH 9.5, 4 C. As to conditions: protein: recombinant;recombinant; HisFF purification;; copies: 1;1; label: Cy5 on one strand; blunt.

B1: 36-nt ssRNA, FAM (ssRNA)
RNA: UUUUUUUUAUUGCCUGGUUGCCUGGUUAUUUCUAUU
Regarding B1, the binding result in series [1] was “binds”.

B2: 36-bp dsRNA, FAM (dsRNA)
RNA 1: B1 RNA
RNA 2: AAUAGAAAUAACCAGGCAACCAGGCAAUAAAAAAAA
With B2, in series [2], the binding result was “binds”.

B3: 36-bp dsRNA, Cy5 (dsRNA)
RNA 1: UUAUAUGUCUUGUUCUCUUGUAUCUGUUCUUGUUGU
RNA 2: ACAACAAGAACAGAUACAAGAGAACAAGACAUAUAA
Turning to B3, the binding result in series [3] is “binds”.
